Where a chain is given by its changes, count along the chain named. Each block holds one binder with its values, some of them ahead of it.
Key:
[1] = target: T1, cyno activated protein C (cyno (monkey)); assay: ELISA, coated antigen
T1 construct: also called cyno aPC; cyno APC

[2] = target: T2, human activated protein C (human, UniProt P04070 43-197; P04070 212-461); assay: ELISA, coated antigen
T2 construct: also called human aPC; human APC

[3] = target: T3, human Protein C (human, UniProt P04070 43-461); assay: ELISA, coated antigen
T3 construct: Zymogen used as negative control in the ELISA; also called human PC; hPC

[4] = target: T1, cyno activated protein C; assay: SPR (Biacore), 1:1 binding model
[5] = target: T2, human activated protein C; assay: SPR (Biacore), 1:1 binding model
[6] = target: T2, human activated protein C; assay: SPR (Biacore)

B1: Hu1573-9 (antibody, V domains shown)
VH: EVQLVESGGGLVQPGGSLRLSCAASGFTFSNYYLNWVRQAPGKGLEWVGDIRLKSNNYEKHYAESVKGRFTISRDDSKSSLYLQMNSLKTEDTAVYYCIREGDYFDYWGQGTTVTVSS
VL: DIVMTQTPLSLSVTPGQPASISCRASESVDSFGATFMHWYLQKPGQPPQLLIYLASNLESGVPDRFSGSGSGTDFTLKISRVEAEDVGVYYCQQNNEDPYTFGQGTKLEIKR
notes: Humanized IgG, human gamma 1 / kappa constant regions by vectors pCP-hCg1 and pCP-hck; also called H1573VH.1D + H1573Vk.2
EC50 [1]: 0.986 nM
EC50 [2]: 0.313 nM
binding result [3]: no binding (tested: 20 nM)
Kd [4]: 15.2 nM
koff [4]: 0.00724 s⁻¹
kon [4]: 475000 M⁻¹ s⁻¹
Kd [5]: 5.63 nM
koff [5]: 0.00815 s⁻¹
kon [5]: 1.45e+06 M⁻¹ s⁻¹

B2: Hu1573-15 (antibody, V domains shown)
VH: B1 VH with G49A, L81V
VL: B1 VL
notes: Humanized IgG, human gamma 1 / kappa constant regions by vectors pCP-hCg1 and pCP-hck; also called H1573VH.1F + H1573Vk.2
EC50 [1]: 0.889 nM
EC50 [2]: 0.288 nM
binding result [3]: no binding (tested: 20 nM)
Kd [4]: 20.2 nM
koff [4]: 0.00452 s⁻¹
kon [4]: 225000 M⁻¹ s⁻¹
Kd [5]: 6.15 nM
koff [5]: 0.00845 s⁻¹
kon [5]: 1.37e+06 M⁻¹ s⁻¹

B3: Hu1573-1 (antibody, V domains shown)
VH: B1 VH with S79N, I99A
VL: B1 VL with M4L, G72R
notes: Humanized IgG, human gamma 1 / kappa constant regions by vectors pCP-hCg1 and pCP-hck; also called H1573VH.1 + H1573Vk.2C
EC50 [1]: 0.865 nM
EC50 [2]: 0.369 nM
binding result [3]: no binding (tested: 20 nM)
Kd [4]: 16.7 nM
koff [4]: 0.00402 s⁻¹
kon [4]: 240000 M⁻¹ s⁻¹
Kd [5]: 3.8 nM
koff [5]: 0.00554 s⁻¹
kon [5]: 1.46e+06 M⁻¹ s⁻¹
Kd [6]: < 5 nM

B5: Hu1573-13 (antibody, V domains shown)
VH: B1 VH with G49A, S79N, L81V
VL: B1 VL with M4L
notes: Humanized IgG, human gamma 1 / kappa constant regions by vectors pCP-hCg1 and pCP-hck; also called H1573VH.1E + H1573Vk.2A
EC50 [1]: 0.804 nM
EC50 [2]: 0.236 nM
binding result [3]: no binding (tested: 20 nM)
Kd [4]: 15 nM
koff [4]: 0.00343 s⁻¹
kon [4]: 229000 M⁻¹ s⁻¹
Kd [5]: 4.69 nM
koff [5]: 0.00655 s⁻¹
kon [5]: 1.4e+06 M⁻¹ s⁻¹

B10: 1573 mouse (antibody, V domains shown)
VH: EVKLEESGGGLVQPGGSMKLSCVASGFTFSNYYLNWVRQSPEKGLEWVADIRLKSNNYEKHYAESVKGRFTISRDDSKSSVYLQMNNLRAEDTGIYYCIREGDYFDYWGQGTTLTVSS
VL: NIVLTQSPASLAVSLGQRATISCRASESVDSFGATFMHWYQQKPGQPPKLLIYLASNLESGVPARFSGSGSRTDFTLTIDPVEADDAATYYCQQNNEDPYTFGGGTKLEIKR
notes: Parental murine monoclonal antibody; also called mouse aPC monoclonal antibody 1573; HAPC1573
Kd [4]: 21.1 nM
koff [4]: 0.00725 s⁻¹
kon [4]: 344000 M⁻¹ s⁻¹
Kd [5]: 5.49 nM
koff [5]: 0.0052 s⁻¹
kon [5]: 948000 M⁻¹ s⁻¹

Stronger by Kd [4], values ahead:

EC50 [1]: 1.03 nM
EC50 [2]: 0.552 nM
binding result [3]: no binding (tested: 20 nM)
Kd [4]: 14.5 nM
koff [4]: 0.00293 s⁻¹
kon [4]: 202000 M⁻¹ s⁻¹
Kd [5]: 4.16 nM
koff [5]: 0.0064 s⁻¹
kon [5]: 1.54e+06 M⁻¹ s⁻¹
Kd [6]: < 5 nM
B6: Hu1573-5 (antibody, V domains shown)
VH: B1 VH with S79N, L81V
VL: B1 VL with G72R
notes: Humanized IgG, human gamma 1 / kappa constant regions by vectors pCP-hCg1 and pCP-hck; also called H1573VH.1B + H1573Vk.2B

EC50 [1]: 0.83 nM
EC50 [2]: 0.334 nM
binding result [3]: no binding (tested: 20 nM)
Kd [4]: 13.8 nM
koff [4]: 0.00766 s⁻¹
kon [4]: 555000 M⁻¹ s⁻¹
Kd [5]: 3.49 nM
koff [5]: 0.00811 s⁻¹
kon [5]: 2.32e+06 M⁻¹ s⁻¹
B9: 1573 Chimeric (antibody, V domains shown)
VH: B10 VH
VL: B10 VL
notes: IgG; also called chimera 1573; 1573VH (chimeric) + 1573Vk (chimeric)

EC50 [1]: 0.713 nM
EC50 [2]: 0.697 nM
binding result [3]: no binding (tested: 20 nM)
Kd [4]: 12.3 nM
koff [4]: 0.00447 s⁻¹
kon [4]: 363000 M⁻¹ s⁻¹
Kd [5]: 4.03 nM
koff [5]: 0.006 s⁻¹
kon [5]: 1.49e+06 M⁻¹ s⁻¹
Kd [6]: < 5 nM
B4: Hu1573-8 (antibody, V domains shown)
VH: B1 VH with G49A, S79N
VL: B1 VL with G72R
notes: Humanized IgG, human gamma 1 / kappa constant regions by vectors pCP-hCg1 and pCP-hck; also called H1573VH.1C + H1573Vk.2B

EC50 [1]: 0.9 nM
EC50 [2]: 0.274 nM
binding result [3]: no binding (tested: 20 nM)
Kd [4]: 11.3 nM
koff [4]: 0.00707 s⁻¹
kon [4]: 627000 M⁻¹ s⁻¹
Kd [5]: 5.94 nM
koff [5]: 0.00848 s⁻¹
kon [5]: 1.43e+06 M⁻¹ s⁻¹
B7: Hu1573-6 (antibody, V domains shown)
VH: B1 VH with G49A, S79N
VL: B1 VL
notes: Humanized IgG, human gamma 1 / kappa constant regions by vectors pCP-hCg1 and pCP-hck; also called H1573VH.1C + H1573Vk.2

EC50 [1]: 0.68 nM
EC50 [2]: 0.575 nM
binding result [3]: no binding (tested: 20 nM)
Kd [4]: 11 nM
koff [4]: 0.00479 s⁻¹
kon [4]: 434000 M⁻¹ s⁻¹
Kd [5]: 4.38 nM
koff [5]: 0.00636 s⁻¹
kon [5]: 1.45e+06 M⁻¹ s⁻¹
Kd [6]: < 5 nM
B8: Hu1573-10 (antibody, V domains shown)
VH: B1 VH
VL: B1 VL with M4L
notes: Humanized IgG, human gamma 1 / kappa constant regions by vectors pCP-hCg1 and pCP-hck; also called H1573VH.1D + H1573Vk.2A

From USRE49099 (Bayer, dated 2022)
